# Measured values from the Human Domainome abundance scans (Beltran et al. 2025).
# ± gives the uncertainty stated by the source.
# B1: Cold shock protein CspB, residues 1 to 66; numbered along this chain, P41016 (parent)
# chain: MQRGKVKWFNNEKGYGFIEVEGGSDVFVHFTAIQGEGFKTLEEGQEVSFEIVQGNRGPQAANVVKL
# B2: POU domain, class 2, transcription factor 3, residues 186 to 260; numbered along this chain, Q9UKI9 (parent)
# chain: SDLEELEKFAKTFKQRRIKLGFTQGDVGLAMGKLYGNDFSQTTISRFEALNLSFKNMCKLKPLLEKWLNDAESSP
# Variants of: B1
# Assay: abundance fitness (aPCA) (normalised: wild type 0, dead -1); higher = more abundant; growth selection in yeast, the domain comes from the species named
# Conditions: Bacillus caldolyticus
row,Variant,abundance fitness
1,K5D,-0.156 ± 0.082
2,K5Q,-0.056 ± 0.045
3,K5A,-0.042 ± 0.042
4,K5N,-0.029 ± 0.063
5,K5F,-0.008 ± 0.061
6,K5H,0.005 ± 0.065
7,K5S,-0.027 ± 0.034
8,K5Y,-0.072 ± 0.061
9,K5M,-0.069 ± 0.039
10,K5V,-0.03 ± 0.039
11,K5G,-0.222 ± 0.033
12,K5C,-0.003 ± 0.049
13,K5I,-0.037 ± 0.05
14,K5R,-0.035 ± 0.026
15,K5W,-0.052 ± 0.03
16,K5P,-0.22 ± 0.041
17,K5E,-0.065 ± 0.056
18,R3Q,-0.021 ± 0.041
19,R3E,-0.019 ± 0.041
20,R3M,0.019 ± 0.051
21,R3F,-0.003 ± 0.062
22,R3G,-0.004 ± 0.031

row,Variant,abundance fitness
1,R3T,-0.024 ± 0.059
2,R3A,-0.032 ± 0.034
3,R3Y,0.027 ± 0.065
4,R3V,-0.013 ± 0.034
5,R3N,-0.061 ± 0.067
6,R3D,-0.023 ± 0.069
7,R3W,-0.117 ± 0.041
8,R3I,-0.025 ± 0.081
9,R3K,-0.046 ± 0.055
10,R3S,-0.039 ± 0.031
11,R3C,-0.076 ± 0.059
12,M1S,-0.049 ± 0.049
13,M1L,-0.044 ± 0.044
14,M1T,-0.03 ± 0.057
15,M1C,-0.102 ± 0.1
16,M1Q,-0.021 ± 0.2
17,M1E,0.008 ± 0.053
18,M1Y,0.027 ± 0.15
19,M1I,-0.006 ± 0.075
20,M1H,0.016 ± 0.18
21,M1A,-0.046 ± 0.047
22,M1F,-0.025 ± 0.065

row,Variant,abundance fitness
1,M1D,-0.086 ± 0.085
2,M1R,-0.096 ± 0.047
3,M1K,-0.1 ± 0.069
4,M1G,-0.064 ± 0.05
5,M1W,-0.086 ± 0.072
6,G4Y,-0.81 ± 0.041
7,G4R,-0.537 ± 0.024
8,G4P,-0.571 ± 0.035
9,G4D,-0.891 ± 0.038
10,G4A,-0.117 ± 0.025
11,G4E,-0.717 ± 0.048
12,G4N,-0.368 ± 0.029
13,G4S,-0.109 ± 0.021
14,G4W,-1.05 ± 0.067
15,G4T,-0.77 ± 0.039
16,G4K,-0.654 ± 0.041
17,G4F,-0.866 ± 0.035
18,G4H,-0.409 ± 0.029
19,G4C,-0.905 ± 0.042
20,G4Q,-0.428 ± 0.035
21,G4M,-0.997 ± 0.066
22,V6D,-1.09 ± 0.11

row,Variant,abundance fitness
1,V6A,-0.088 ± 0.035
2,V6E,-1.02 ± 0.091
3,V6C,-0.058 ± 0.059
4,Q2C,0.027 ± 0.061
5,Q2N,-0.026 ± 0.12
6,Q2S,-0.034 ± 0.035
7,Q2R,-0.006 ± 0.038
8,Q2T,0.029 ± 0.056
9,Q2Y,0.003 ± 0.051
10,Q2F,0.048 ± 0.069
11,Q2H,0.027 ± 0.083
12,Q2I,0.028 ± 0.078
13,Q2P,-0.206 ± 0.038
14,Q2M,0.051 ± 0.066
15,Q2E,0.011 ± 0.067
16,Q2V,0.018 ± 0.039
17,Q2A,-0.003 ± 0.046
18,Q2G,-0.043 ± 0.039
19,Q2W,0.001 ± 0.051
20,Q2D,-0.036 ± 0.073

# Variants of: B2
# Assay: as above
# Conditions: Homo sapiens
row,Variant,abundance fitness
1,S74F,-0.08 ± 0.11
2,S74E,-0.172 ± 0.07
3,S74R,-0.038 ± 0.036
4,S74I,-0.033 ± 0.081
5,S74H,0.058 ± 0.081
6,S74K,0.036 ± 0.07
7,S74M,-0.131 ± 0.075
8,S74Y,-0.107 ± 0.079
9,S74L,-0.119 ± 0.042
10,S74V,0.039 ± 0.033
11,S74T,-0.034 ± 0.045
12,S74W,-0.059 ± 0.057
13,S74C,-0.009 ± 0.06
14,S74D,-0.065 ± 0.075
15,S74G,-0.084 ± 0.032
16,S74Q,-0.017 ± 0.055
17,A71I,-0.074 ± 0.16
18,A71D,-0.322 ± 0.063
19,A71S,-0.059 ± 0.042
20,A71N,0.093 ± 0.13
21,A71W,-0.076 ± 0.039

row,Variant,abundance fitness
1,A71M,-0.017 ± 0.052
2,A71E,-0.01 ± 0.042
3,A71K,0.022 ± 0.054
4,A71G,-0.156 ± 0.033
5,A71R,-0.025 ± 0.03
6,A71T,-0.005 ± 0.06
7,A71H,0.047 ± 0.066
8,A71V,0.01 ± 0.038
9,A71Q,0.036 ± 0.054
10,A71L,0.017 ± 0.035
11,A71P,-0.067 ± 0.067
12,A71Y,-0.271 ± 0.14
13,S73W,-0.173 ± 0.038
14,S73M,-0.088 ± 0.047
15,S73Q,-0.059 ± 0.047
16,S73R,-0.113 ± 0.031
17,S73E,-0.04 ± 0.043
18,S73L,-0.078 ± 0.039
19,S73Y,-0.121 ± 0.078
20,S73N,0.003 ± 0.061
21,S73H,-0.017 ± 0.066

row,Variant,abundance fitness
1,S73F,-0.077 ± 0.059
2,S73G,-0.023 ± 0.03
3,S73T,-0.049 ± 0.051
4,S73K,-0.06 ± 0.058
5,S73C,-0.087 ± 0.057
6,S73V,-0.038 ± 0.039
7,S73A,-0.012 ± 0.044
8,S73D,-0.003 ± 0.067
9,S73P,-0.077 ± 0.065
10,E72W,-0.179 ± 0.041
11,E72T,-0.078 ± 0.055
12,E72C,-0.071 ± 0.049
13,E72K,-0.133 ± 0.049
14,E72A,-0.033 ± 0.045
15,E72V,-0.043 ± 0.04
16,E72R,-0.122 ± 0.032
17,E72N,-0.002 ± 0.06
18,E72S,-0.084 ± 0.042
19,E72L,-0.173 ± 0.036
20,E72I,-0.213 ± 0.11
21,E72D,-0.037 ± 0.058

row,Variant,abundance fitness
1,E72Q,-0.026 ± 0.055
2,E72Y,-0.186 ± 0.1
3,E72P,-0.269 ± 0.058
4,E72G,-0.089 ± 0.031
5,E72F,-0.24 ± 0.065
6,P75G,0.011 ± 0.049
7,P75Q,-0.086 ± 0.089
8,P75L,0.022 ± 0.07
9,P75K,-0.128 ± 0.15
10,P75C,-0.076 ± 0.15
11,P75E,-0.017 ± 0.074
12,P75H,-0.044 ± 0.088
13,P75A,0.044 ± 0.066
14,P75S,-0.067 ± 0.071
15,P75F,-0.185 ± 0.17
16,P75W,-0.183 ± 0.12
17,P75M,-0.059 ± 0.097
18,P75R,-0.044 ± 0.053
